Tests used:
Assay in all cases: SPR; KD relative to WT C2;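 note: biacore SPR at 37 °C, anti-C2 mAbs captured on an anti-human IgG chip, alanine or serine C2 surface mutants tested, KD from 1:1 fit compared with wild-type C2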
human C2 V455A = target: T1, human C2 V455A (human, UniProt P06681 21-752)
T1 sequence: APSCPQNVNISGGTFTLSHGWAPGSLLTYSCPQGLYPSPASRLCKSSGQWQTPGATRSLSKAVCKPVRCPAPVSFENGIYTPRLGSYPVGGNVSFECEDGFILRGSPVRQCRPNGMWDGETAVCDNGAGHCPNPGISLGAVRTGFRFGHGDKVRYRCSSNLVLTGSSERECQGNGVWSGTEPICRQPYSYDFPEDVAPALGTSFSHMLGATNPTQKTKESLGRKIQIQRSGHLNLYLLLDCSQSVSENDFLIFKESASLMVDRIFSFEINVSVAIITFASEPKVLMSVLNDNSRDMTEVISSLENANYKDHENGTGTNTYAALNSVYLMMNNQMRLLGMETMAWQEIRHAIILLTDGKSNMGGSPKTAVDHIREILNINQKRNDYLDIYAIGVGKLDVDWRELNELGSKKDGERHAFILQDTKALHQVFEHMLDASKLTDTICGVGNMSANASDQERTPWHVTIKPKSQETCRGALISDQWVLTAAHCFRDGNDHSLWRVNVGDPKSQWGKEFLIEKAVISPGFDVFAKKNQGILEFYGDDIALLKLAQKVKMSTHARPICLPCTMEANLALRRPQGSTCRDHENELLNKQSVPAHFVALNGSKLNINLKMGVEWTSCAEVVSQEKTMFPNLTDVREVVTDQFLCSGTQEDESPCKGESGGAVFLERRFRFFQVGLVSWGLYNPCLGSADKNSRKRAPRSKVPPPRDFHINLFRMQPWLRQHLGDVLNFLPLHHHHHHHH
Protocol: (§1) Surface plasmon resonance (SPR, Biacore) was used for all binding affinity analyses. In brief, goat anti-human IgG was directly immobilised onto the carboxymethyl dextran surface of CM5 sensorchips to approximately 12,000 RU using standard NHS/EDC chemistry at pH 5. The immobilised antibody surface was pre-conditioned with ten injections of polyclonal human IgG (Privigen 60 s) prepared at 1 μg/mL. Ligands (anti-C2 mAbs) were captured at the beginning of each cycle as described below. An adjacent spot or flow cell in which only Polyclonal IgG was capture was used as a reference surface. The goat anti-human IgG Fc antibody surface was regenerate in 100 mM H3PO4, injected for 45 seconds at the end of each cycle. Experiments were performed at 37° C. and the flow rate of each experiment was kept constant at 30 μL/min.
(§2) Sensogram data was double-referenced against a reference anti-IgG surface (i.e. minus anti-C2 mAb) and blank buffer injections obtained within each experiment. The binding data was fit to 1:1 (kinetic or steady-state) model using local Rmax and null refraction index (RI=0) when appropriate. Buffers and solutions were filtered (0.22 μm) prior to use.
(§3) The C2 mutants were designed to test the importance of surface exposed residues for antibody binding. Residues located at either the N-terminal VWA domain or C-terminal protease domain of C were replaced by either alanine or serine and tested for binding against anti-C2 antibodies.

human C2 Q447A = target: T2, human C2 Q447A (human, UniProt P06681 21-752)
T2 sequence: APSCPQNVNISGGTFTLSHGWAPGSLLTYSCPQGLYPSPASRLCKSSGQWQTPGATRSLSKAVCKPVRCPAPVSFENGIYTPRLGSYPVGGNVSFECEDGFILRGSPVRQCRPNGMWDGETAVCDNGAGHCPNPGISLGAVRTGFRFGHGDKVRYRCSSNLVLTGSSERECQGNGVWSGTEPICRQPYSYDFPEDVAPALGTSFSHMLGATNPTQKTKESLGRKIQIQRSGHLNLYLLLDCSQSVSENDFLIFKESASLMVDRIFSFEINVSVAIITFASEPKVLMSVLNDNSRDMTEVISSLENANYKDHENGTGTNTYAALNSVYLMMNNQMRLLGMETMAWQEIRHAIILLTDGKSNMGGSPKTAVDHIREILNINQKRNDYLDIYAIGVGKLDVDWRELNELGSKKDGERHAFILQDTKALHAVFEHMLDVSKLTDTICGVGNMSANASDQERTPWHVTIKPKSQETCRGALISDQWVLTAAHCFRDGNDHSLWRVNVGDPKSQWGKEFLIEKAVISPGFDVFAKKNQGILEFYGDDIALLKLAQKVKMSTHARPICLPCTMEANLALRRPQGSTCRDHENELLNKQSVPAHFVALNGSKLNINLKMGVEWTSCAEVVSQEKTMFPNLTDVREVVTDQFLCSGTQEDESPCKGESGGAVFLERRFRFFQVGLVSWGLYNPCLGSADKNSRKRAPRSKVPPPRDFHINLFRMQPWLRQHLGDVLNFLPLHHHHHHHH
Protocol: as §1, §2, §3

human C2 Y328A = target: T3, human C2 Y328A (human, UniProt P06681 21-752)
T3 sequence: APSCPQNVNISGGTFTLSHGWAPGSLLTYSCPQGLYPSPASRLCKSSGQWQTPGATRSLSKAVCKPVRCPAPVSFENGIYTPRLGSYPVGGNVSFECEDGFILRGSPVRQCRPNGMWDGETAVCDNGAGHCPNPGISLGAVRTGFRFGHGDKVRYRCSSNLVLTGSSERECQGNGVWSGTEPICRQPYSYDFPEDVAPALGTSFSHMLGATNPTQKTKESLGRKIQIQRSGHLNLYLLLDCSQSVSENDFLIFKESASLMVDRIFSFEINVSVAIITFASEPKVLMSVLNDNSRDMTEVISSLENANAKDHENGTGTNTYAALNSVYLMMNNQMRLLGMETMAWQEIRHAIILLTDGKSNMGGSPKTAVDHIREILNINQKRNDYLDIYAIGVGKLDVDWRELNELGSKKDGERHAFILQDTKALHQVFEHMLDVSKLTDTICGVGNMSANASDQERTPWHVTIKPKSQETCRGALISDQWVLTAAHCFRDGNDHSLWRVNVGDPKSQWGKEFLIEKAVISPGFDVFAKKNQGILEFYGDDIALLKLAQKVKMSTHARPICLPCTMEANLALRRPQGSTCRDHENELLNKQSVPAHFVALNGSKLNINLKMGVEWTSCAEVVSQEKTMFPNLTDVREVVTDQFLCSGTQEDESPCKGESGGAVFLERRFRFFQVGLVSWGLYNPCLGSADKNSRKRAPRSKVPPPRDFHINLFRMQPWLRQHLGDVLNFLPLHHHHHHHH
Protocol: as §1, §2, §3

human C2 G432A = target: T4, human C2 G432A (human, UniProt P06681 21-752)
T4 sequence: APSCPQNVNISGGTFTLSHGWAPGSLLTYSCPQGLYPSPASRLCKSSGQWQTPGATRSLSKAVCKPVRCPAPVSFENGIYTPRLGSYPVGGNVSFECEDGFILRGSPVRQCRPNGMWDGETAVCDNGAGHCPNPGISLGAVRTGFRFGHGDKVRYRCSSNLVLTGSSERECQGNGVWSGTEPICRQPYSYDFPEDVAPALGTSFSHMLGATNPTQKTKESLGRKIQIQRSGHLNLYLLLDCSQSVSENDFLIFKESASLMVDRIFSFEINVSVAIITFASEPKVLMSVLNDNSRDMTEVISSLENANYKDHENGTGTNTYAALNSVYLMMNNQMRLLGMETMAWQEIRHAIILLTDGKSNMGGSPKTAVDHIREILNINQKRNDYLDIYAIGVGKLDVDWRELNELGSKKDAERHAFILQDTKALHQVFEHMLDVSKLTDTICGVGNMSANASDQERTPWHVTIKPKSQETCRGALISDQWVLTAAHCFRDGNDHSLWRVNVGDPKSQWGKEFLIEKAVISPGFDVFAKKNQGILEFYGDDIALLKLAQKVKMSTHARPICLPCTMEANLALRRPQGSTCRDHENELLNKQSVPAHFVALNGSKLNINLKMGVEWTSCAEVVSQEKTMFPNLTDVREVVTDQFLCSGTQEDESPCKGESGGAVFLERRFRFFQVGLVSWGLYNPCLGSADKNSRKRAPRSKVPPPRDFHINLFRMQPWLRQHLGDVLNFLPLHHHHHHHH
Protocol: as §1, §2, §3

B1: RF16-214 (antibody, V domains shown)
VH: EVQLLESGGGLVQPGGSLRLSCAASGFTFSWYQMMWVRQAPGKGLEWVSRIYPSGGGTAYADSVKGRFTISRDNSKNTLYLQMNSLRAEDTAVYYCARDAGYGDNWGQGTLVTVSS
VL: QSALTQPPSVSVSPGQTASITCSGDKLGEKYASWYQQKAGQSPVMVIYQDRKRPSGIPERFSGSNSGNTATLTISGTQAMDEADYYCQAWDTRAVVFGGGTKLTVLG
Human C2 V455A
  Fold diff: 0 fold
Human C2 Q447A
  Fold diff: 4 fold
Human C2 Y328A
  Fold diff: 6 fold
Human C2 G432A
  Fold diff: 1 fold
